For test [1], the target named is T1, RBM15 SPOC R834A (human, UniProt Q96T37 775-960, R834A).
T1 construct: SPOC domain of human RBM15, residues 775-960, with R834A; not shown: His6, N-terminal, cleaved
T1 sequence (looked up): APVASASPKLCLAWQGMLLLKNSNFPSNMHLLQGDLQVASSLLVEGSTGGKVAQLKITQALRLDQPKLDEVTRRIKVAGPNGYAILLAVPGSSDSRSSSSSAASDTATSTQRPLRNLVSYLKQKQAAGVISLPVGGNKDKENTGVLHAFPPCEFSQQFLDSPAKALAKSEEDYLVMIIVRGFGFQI
In words: fluorescence polarisation; fluorescence anisotropy; 90 nM labelled peptide (Atto-488 on CTD peptides, FAM on NCoR and FMR1 peptides) titrated with increasing concentrations of SPOC domain; 20 °C; 25 mM Tris-Cl pH 7.4, 25 mM NaCl, 1 mM DTT; three independent dilution series. Particulars: both partners purified. For orientation: In fluorescence polarisation assays a small probe gives low polarisation when free and higher when bound to something large.

For test [2], the target named is T2, SHARP SPOC (3496–3664 aa) (human, UniProt Q96T58 3496-3664).
T2 construct: SPOC domain of human SHARP (SMRT/HDAC1 associated repressor protein, also known as SPEN), residues 3496-3664; also called SPOC domain of SHARP; SPEN SPOC; not shown: His6, N-terminal, cleaved
Described as above. Particulars: both partners purified.

Where no end group is shown, it is not given here. [ ]: non-standard residue; d: D form. FAM = FAM fluorescent label on the peptide N-terminus (the text does not expand the abbreviation); pS = N[C@@H](COP(=O)(O)O)C(=O)O

B1: WTAP peptide (first 19 N-terminal amino acids) phosphorylated at S14 (peptide, UniProt Q15007 1-19, looked up)
peptide: MTNEEPLPKKVRL[pS]ETDFK
notes: first 19 N-terminal amino acids of WTAP, with the LSETD motif; also called WTAP pS14
For B1, the dissociation constant Kd in test [1] turned out to be 50.4 ± 1.1 µM.

B2: unphosphorylated NCoR peptide (peptide)
chain: {FAM}-REPAPLLSAQYETLSDSDD
On to B2, for which the equilibrium dissociation constant (Kd) in test [2] was 13.6 ± 1.3 µM.

B3: NCoR peptide phosphorylated at S2436 (peptide)
chain: {FAM}-REPAPLLSAQYETL[pS]DSDD
modifications: also: phosphoserine at S2436
In test [2], B3 registered an equilibrium dissociation constant (Kd) of 1.75 ± 0.04 µM.

B4: 1×S5P CTD diheptapeptide (peptide)
peptide: {Atto‑488}-YSPT[pS]PSYSPTSPS
notes: also called 1×S5P CTD peptide; CTD pS5; source: lyophilized peptide, labeled with Atto-488 NHS ester, purified by reverse-phase HPLC
In test [2], B4 returned a Kd of 23.8 ± 0.8 µM. This Kd lies about 14-fold higher than the previous one.

By Kd is commonly meant the free concentration of one partner at which half of the binding sites on the other are occupied at equilibrium, for simple one-to-one binding.

The values above are taken from publication PMC9834408 (Nature Communications, 2023).
